Experimental data: article PMC3376909 (Molecular Microbiology, 2012)

Target: T1, MinD-N45A (purified) (E. coli, UniProt P0AEZ3 1-270, N45A)
T1 sequence (looked up): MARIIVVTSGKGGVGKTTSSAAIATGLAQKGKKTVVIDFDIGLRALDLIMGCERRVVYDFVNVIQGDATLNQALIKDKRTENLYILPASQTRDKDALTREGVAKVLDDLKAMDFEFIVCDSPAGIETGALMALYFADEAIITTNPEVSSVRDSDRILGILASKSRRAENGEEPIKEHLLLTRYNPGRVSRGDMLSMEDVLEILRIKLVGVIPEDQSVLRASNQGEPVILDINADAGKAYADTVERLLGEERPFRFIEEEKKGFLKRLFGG
Assay: co-sedimentation

B1: MalE-MinC (natural protein, E. coli, UniProt P18196 1-231, looked up)
chain: MSNTPIELKGSSFTLSVVHLHEAEPKVIHQALEDKIAQAPAFLKHAPVVLNVSALEDPVNWSAMHKAVSATGLRVIGVSGCKDAQLKAEIEKMGLPILTEGKEKAPRPAPTPQAPAQNTTPVTKTRLIDTPVRSGQRIYAPQCDLIVTSHVSAGAELIADGNIHVYGMMRGRALAGASGDRETQIFCTNLMAELVSIAGEYWLSDQIPAEFYGKAARLQLVENALTVQPLN
- binding result: binds

B2: MinE-his (purified) (natural protein, E. coli, UniProt P0A734 1-88, looked up)
chain: MALLDFFLSRKKNTANIAKERLQIIVAERRRSDAEPHYLPQLRKDILEVICKYVQIDPEMVTVQLEQKDGDISILELNVTLPEAEELK
- binding result: binds
